Assays:
[1] = system: Lactococcus lactis alcohol dehydrogenase Ll_AdhA, SEQ ID NO: 67; settings: NADH as cofactor; cited from earlier work
[2] = substrate: NC(=O)C1=CN([C@@H]2O[C@H](COP(=O)(O)OP(=O)(O)OC[C@H]3O[C@@H](n4cnc5c(N)ncnc54)[C@H](O)[C@@H]3O)[C@@H](O)[C@H]2O)C=CC1; test: KARI cuvette assay, purified Ec_IlvC^B8-his6; type: biochemical, E. coli
Method: (§1) KARI cuvette assay: KARI activity was assayed kinetically by monitoring the decrease in NAD(P)H concentration by measuring the absorbance at 340 nm. A reaction buffer was prepared containing 250 mM potassium phosphate pH 7, 1 mM DTT and 10 mM MgCl2. Cell pellets were resuspended (0.25 g wet weight/mL buffer) in 250 mM potassium phosphate (KPi) buffer containing 1 mM DTT and 10 mM MgCl2. The resuspended cells were lysed by sonication for 1 min with a 50% duty cycle and pelleted at 11000×g and 4° C. for 15 min. A reaction mixture consisting of 910 μl reaction buffer, 50 μl acetolactate, and 20 μl lysate was prepared in a cuvette. The reaction was initiated by addition of 20 μL of 10 mM NAD(P)H. A substrate free control was conducted using reaction buffer without the addition of acetolactate.
(§2) Purification of KARI: Cell pellets used for purification were resuspended in purification buffer A (20 mM Tris, 20 mM imidazol, 100 mM NaCl, 10 mM MgCl2, pH 7.4). KARI was purified by IMAC (Immobilized metal affinity chromatography) over a 1 ml Histrap High Performance (histrap HP) column pre-charged with Nickel (GE Healthcare) using an Akta FPLC system (GE Healthcare). The column was equilibrated with four column volumes (cv) of buffer A. After injecting the crude extract, the column was washed with buffer A for 2 cv, followed by a wash step with a mixture of 10% elution buffer B (20 mM Tris, 300 mM imidazol, 100 mM NaCl, 10 mM MgCl2, pH 7.4) for 5 cv. KARI variants were eluted at 40% buffer B and stored at 4° C.
(§3) As a next step, the gene encoding variant Ec_llvC^Q110V-his6 (SEQ ID NO: 23) was used as template to generate individual combinations of the mutation Q110V with other mutations: R68L, A71T, A71S, R76G, R76S, R76T, S78D, and R76D. After screening the variants as described above, the most promising ones were expressed, purified, and characterized. Table 29 lists the KM values in μM on NADPH and NADH for Ec_llvC^his6, Ec_llvC^Q110V-his6, and variants of Ec_llvC^Q110V-his6. […] The A71S mutation was introduced into Ec_llvC^B8-his6 resulting in a variant Ec_llvC^B8A71S-his6, which yielded 44% catalytic efficiency on NADH compared to the catalytic efficiency of wild-type KARI on NADPH (FIG. 19 and Table 30).

[3] = substrate: NC(=O)C1=CN([C@@H]2O[C@H](COP(=O)(O)OP(=O)(O)OC[C@H]3O[C@@H](n4cnc5c(N)ncnc54)[C@H](OP(=O)(O)O)[C@@H]3O)[C@@H](O)[C@H]2O)C=CC1; test: KARI cuvette assay, purified Ec_IlvC^B8-his6; type: biochemical, E. coli; settings: other: purified; acetolactate as substrate
Method: as §1, §2, §3

[4] = substrate: NC(=O)C1=CN([C@@H]2O[C@H](COP(=O)(O)OP(=O)(O)OC[C@H]3O[C@@H](n4cnc5c(N)ncnc54)[C@H](O)[C@@H]3O)[C@@H](O)[C@H]2O)C=CC1; test: KARI assay, purified Ec_IlvC^2H10-his6; type: biochemical, E. coli; settings: other: purified; acetolactate as substrate
Method: as §1, §2
(§4) Only 20% of the enzymes of the recombination library were active on NADH. After screening 1,000 clones using the NADH depletion assay at 340 nm, 26 KARI variants were selected for a rescreen by the high-throughput assay described in Example 14 and eight thereof were expressed in 25 ml LBamp medium in shake flasks according to the protocol for cell growth and protein expression in shake flasks as described in Example 14, purified according to the protocol for purification of KARI enzymes as described in Example 14, and NAD(P)H depletion at 340 nm was measured again. […] The KM values of variants Ec_llvC^2H10-his6 and Ec_llvC^6E6-his6 were measured and the catalytic efficiencies were calculated.

[5] = substrate: NC(=O)C1=CN([C@@H]2O[C@H](COP(=O)(O)OP(=O)(O)OC[C@H]3O[C@@H](n4cnc5c(N)ncnc54)[C@H](OP(=O)(O)O)[C@@H]3O)[C@@H](O)[C@H]2O)C=CC1; test: KARI assay, purified Ec_IlvC^2H10-his6; type: biochemical, E. coli; settings: other: purified; acetolactate as substrate
Method: as §1, §2, §4

[6] = substrate: NC(=O)C1=CN([C@@H]2O[C@H](COP(=O)(O)OP(=O)(O)OC[C@H]3O[C@@H](n4cnc5c(N)ncnc54)[C@H](O)[C@@H]3O)[C@@H](O)[C@H]2O)C=CC1; test: KARI assay, purified Ec_IlvC^6E6-his6; type: biochemical, E. coli; settings: 30.0 °C
Method: as §1, §2, §4
(§5) Improved variants were expressed and purified from GEVO1186. 20 mL SC-URA medium overnight cultures were grown at 30° C. and 250 rpm in 250 mL flasks and were then used to inoculate 96 well deep well plates on the next morning. 50 μL of the overnight cultures were transferred into 600 μL SC-URA medium per well. The plates were then grown at 30° C. and 250 rpm in a humidified plate shaker for 8 h. In order to the harvest, the cultures were transferred into 50 mL Falcon tubes and then spun down at 4° C. and 5,000 rpm for 10 min. The pellets were frozen until they were processed and purified as described in Example 14 above.

[7] = substrate: NC(=O)C1=CN([C@@H]2O[C@H](COP(=O)(O)OP(=O)(O)OC[C@H]3O[C@@H](n4cnc5c(N)ncnc54)[C@H](OP(=O)(O)O)[C@@H]3O)[C@@H](O)[C@H]2O)C=CC1; test: KARI assay, purified Ec_IlvC^6E6-his6; type: biochemical, E. coli; settings: other: Example 15, expressed in E. coli BL21(DE3), purified; 30.0 °C
Method: as §1, §2, §4, §5

[8] = substrate: NC(=O)C1=CN([C@@H]2O[C@H](COP(=O)(O)OP(=O)(O)OC[C@H]3O[C@@H](n4cnc5c(N)ncnc54)[C@H](O)[C@@H]3O)[C@@H](O)[C@H]2O)C=CC1; test: KARI cuvette assay, purified Ec_IlvC^his6 (parent / wild type); type: biochemical, E. coli
Method: as §1, §2
(§6) The three best variants Ec_llvC^S78D-his6, Ec_llvC^Q110A-his6, and Ec_llvC^Q110V-his6 were characterized according to their specific activities [U/mg], kcat values [s^−1], catalytic efficiencies [M^−1*s^−1] (FIG. 18), and KM values (Table 27).
as §4

[9] = substrate: NC(=O)C1=CN([C@@H]2O[C@H](COP(=O)(O)OP(=O)(O)OC[C@H]3O[C@@H](n4cnc5c(N)ncnc54)[C@H](OP(=O)(O)O)[C@@H]3O)[C@@H](O)[C@H]2O)C=CC1; test: as above; type: biochemical, E. coli; settings: other: purified; acetolactate as substrate
Method: as §1, §2, §6, §4

[10] = other: purified, acetolactate as substrate
[11] = other: Example 15, expressed in E. coli BL21(DE3), purified
[12] = other: Example 16, expressed in yeast GEVO1186, purified

CC(C)C=O [isobutyraldehyde]
Km [1]: 9100 µM | kcat [1]: 6.6 s⁻¹

CC=O [Acetaldehyde]
Km [1]: 500 µM | kcat [1]: 10 s⁻¹

B1: E. coli KARI Ec_IlvC variant Ec_IlvC^B8-his6 (Q110V, S78D), SEQ ID NO: 27 (Escherichia coli K-12; Q110V/S78D) (protein)
chain: MANYFNTLNLRQQLAQLGKCRFMGRDEFADGASYLQGKKVVIVGCGAQGLNQGLNMRDSGLDISYALRKEAIAEKRADWRKATENGFKVGTYEELIPQADLVINLTPDKVHSDVVRTVQPLMKDGAALGYSHGFNIVEVGEQIRKDITVVMVAPKCPGTEVREEYKRGFGVPTLIAVHPENDPKGEGMAIAKAWAAATGGHRAGVLESSFVAEVKSDLMGEQTILCGMLQAGSLLCFDKLVEEGTDPAYAEKLIQFGWETITEALKQGGITLMMDRLSNPAKLRAYALSEQLKEIMAPLFQKHMDDIISGEFSSGMMADWANDDKKLLTWREETGKTAFETAPQYEGKIGEQEYFDKGVLMIAMVKAGVELAFETMVDSGIIEESAYYESLHELPLIANTIARKRLYEMNVVISDTAEYGNYLFSYACVPLLKPFMAELQPGDLGKAIPEGAVDNGQLRDVNEAIRSHAIEQVGKKLRGYMTDMKRIAVAGLEHHHHHH
Km [2, 10]: 65 µM | kcat [2, 10]: 2.0 s⁻¹ | kcat/Km [2, 10]: 31,775 M^−1 * s^−1 | kcat/Km ([2]; with NADH): 34200 M⁻¹ s⁻¹ | Km [3]: 65 µM | kcat [3]: 2.2 s⁻¹ | kcat/Km [3]: 34,188 M^−1 * s^−1

B2: E. coli KARI Ec_IlvC variant Ec_IlvC^2H10-his6 (A71S, R76D, S78D, Q110A), SEQ ID NO: 31 (Escherichia coli K-12; A71S/Q110A/R76D/S78D) (protein)
chain: MANYFNTLNLRQQLAQLGKCRFMGRDEFADGASYLQGKKVVIVGCGAQGLNQGLNMRDSGLDISYALRKESIAEKDADWRKATENGFKVGTYEELIPQADLVINLTPDKAHSDVVRTVQPLMKDGAALGYSHGFNIVEVGEQIRKDITVVMVAPKCPGTEVREEYKRGFGVPTLIAVHPENDPKGEGMAIAKAWAAATGGHRAGVLESSFVAEVKSDLMGEQTILCGMLQAGSLLCFDKLVEEGTDPAYAEKLIQFGWETITEALKQGGITLMMDRLSNPAKLRAYALSEQLKEIMAPLFQKHMDDIISGEFSSGMMADWANDDKKLLTWREETGKTAFETAPQYEGKIGEQEYFDKGVLMIAMVKAGVELAFETMVDSGIIEESAYYESLHELPLIANTIARKRLYEMNVVISDTAEYGNYLFSYACVPLLKPFMAELQPGDLGKAIPEGAVDNGQLRDVNEAIRSHAIEQVGKKLRGYMTDMKRIAVAGLEHHHHHH
notes: T37 values cited for the gene on pGV1976
Km [4]: 44.2 µM | kcat [4]: 2.6 s⁻¹ | kcat/Km [4]: 60322 M⁻¹ s⁻¹ | Km [5]: 568 µM | kcat [5]: 0.61 s⁻¹ | kcat/Km [5]: 1,078 M^−1 * s^−1

B3: E. coli KARI Ec_IlvC variant Ec_IlvC^6E6-his6 (A71S, R76D, S78D, Q110V), SEQ ID NO: 34 (Escherichia coli K-12; A71S/Q110V/R76D/S78D) (protein)
chain: MANYFNTLNLRQQLAQLGKCRFMGRDEFADGASYLQGKKVVIVGCGAQGLNQGLNMRDSGLDISYALRKESIAEKDADWRKATENGFKVGTYEELIPQADLVINLTPDKVHSDVVRTVQPLMKDGAALGYSHGFNIVEVGEQIRKDITVVMVAPKCPGTEVREEYKRGFGVPTLIAVHPENDPKGEGMAIAKAWAAATGGHRAGVLESSFVAEVKSDLMGEQTILCGMLQAGSLLCFDKLVEEGTDPAYAEKLIQFGWETITEALKQGGITLMMDRLSNPAKLRAYALSEQLKEIMAPLFQKHMDDIISGEFSSGMMADWANDDKKLLTWREETGKTAFETAPQYEGKIGEQEYFDKGVLMIAMVKAGVELAFETMVDSGIIEESAYYESLHELPLIANTIARKRLYEMNVVISDTAEYGNYLFSYACVPLLKPFMAELQPGDLGKAIPEGAVDNGQLRDVNEAIRSHAIEQVGKKLRGYMTDMKRIAVAGLEHHHHHH
notes: T37 values cited for the gene on pGV1975
Km [6, 11]: 31.6 µM | kcat [6, 11]: 2.3 s⁻¹ | kcat/Km [6, 11]: 74045 M⁻¹ s⁻¹ | Km [6, 12]: 39 µM | kcat [6, 12]: 2.4 s⁻¹ | kcat/Km [6, 12]: 63,000 M^−1 * S^−1 | Km [7]: 653 µM | kcat [7]: 0.2 s⁻¹ | kcat/Km [7]: 386 M⁻¹ s⁻¹

B4: Escherichia coli KARI (ketol-acid reductoisomerase) Ec_IlvC^his6, wild type IlvC (SEQ ID NO: 13) with his6-tag, SEQ ID NO: 15 (Escherichia coli K-12) (protein)
chain: MANYFNTLNLRQQLAQLGKCRFMGRDEFADGASYLQGKKVVIVGCGAQGLNQGLNMRDSGLDISYALRKEAIAEKRASWRKATENGFKVGTYEELIPQADLVINLTPDKQHSDVVRTVQPLMKDGAALGYSHGFNIVEVGEQIRKDITVVMVAPKCPGTEVREEYKRGFGVPTLIAVHPENDPKGEGMAIAKAWAAATGGHRAGVLESSFVAEVKSDLMGEQTILCGMLQAGSLLCFDKLVEEGTDPAYAEKLIQFGWETITEALKQGGITLMMDRLSNPAKLRAYALSEQLKEIMAPLFQKHMDDIISGEFSSGMMADWANDDKKLLTWREETGKTAFETAPQYEGKIGEQEYFDKGVLMIAMVKAGVELAFETMVDSGIIEESAYYESLHELPLIANTIARKRLYEMNVVISDTAEYGNYLFSYACVPLLKPFMAELQPGDLGKAIPEGAVDNGQLRDVNEAIRSHAIEQVGKKLRGYMTDMKRIAVAGLEHHHHHH
Km [8, 10]: 1,075 μM | kcat [8, 10]: 1.0 s⁻¹ | kcat/Km [8, 10]: 1,000 M^−1 * s^−1 | kcat/Km ([8]; with NADH): 87300 M⁻¹ s⁻¹ | Km [9]: 41 µM | kcat [9]: 3.6 s⁻¹ | kcat/Km [9]: 87300 M⁻¹ s⁻¹
